Source: paper PMC11686378, “Communication between DNA polymerases and Replication Protein A within the archaeal replisome” (Nature Communications, 2024)

T1: RPA^ΔWH (Rpa1/Rpa2(1-179)/Rpa3), RPA lacking the winged-helix domain of Rpa2 (Pyrococcus abyssi)
T1 chain 1: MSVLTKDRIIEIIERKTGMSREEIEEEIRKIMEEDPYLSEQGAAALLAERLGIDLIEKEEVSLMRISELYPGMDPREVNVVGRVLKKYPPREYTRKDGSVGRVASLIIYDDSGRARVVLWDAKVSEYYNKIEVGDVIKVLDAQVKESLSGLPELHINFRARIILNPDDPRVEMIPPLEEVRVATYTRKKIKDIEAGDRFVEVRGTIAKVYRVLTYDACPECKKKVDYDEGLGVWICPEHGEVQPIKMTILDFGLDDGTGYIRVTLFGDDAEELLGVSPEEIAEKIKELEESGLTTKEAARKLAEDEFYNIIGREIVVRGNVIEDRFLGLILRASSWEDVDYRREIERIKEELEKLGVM
T1 chain 2: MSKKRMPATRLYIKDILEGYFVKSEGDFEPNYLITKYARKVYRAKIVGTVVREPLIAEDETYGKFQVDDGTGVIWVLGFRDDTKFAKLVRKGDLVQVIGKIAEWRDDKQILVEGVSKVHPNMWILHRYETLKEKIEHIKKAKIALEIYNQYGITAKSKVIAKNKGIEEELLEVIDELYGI
T1 chain 3: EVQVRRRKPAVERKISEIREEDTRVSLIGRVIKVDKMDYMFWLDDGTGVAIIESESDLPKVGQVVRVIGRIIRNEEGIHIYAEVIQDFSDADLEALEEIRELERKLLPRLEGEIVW

B1: Histidine-tagged Rpa2^WH (Rpa2 residues 178-268), C-terminal winged-helix domain of P. abyssi Rpa2 (domain or fragment)
chain: MGKHHHHSGHHHTGHHHHSGSHHHTSSSASTGENLYFQGTGGIMMEERSIEEPMEELLEEEIPEEKEENELLEKAKEDILNILRQKRTAISRKYILKKLGDKYDEETIDDAITELLAQGEIYEPETGYYKLL
B2: DNA primase PriSL (PriS-PriL heterodimer) from P. abyssi, in solution (complex, Pyrococcus abyssi)
chain 1: MLLREVTKEERKEFYSNEWNAKQIPDFILQNLDKREFGFDHTGEGPSDRKNSYTDVRDLEDYIKATAPYAVYSSVAFYEKPQEMEGWLGAELVFDIDAKDLPLRRCNHEPGKVCPICLNDAKEIARDTLIVLKEELGFEDVHVVYSGRGYHIRVMDGWALSLDSKSRERILSFISASEIEDHSEFRKMLLERRGWFVLNHGYPRVFRLRFGYFILRVKVEHLINFGIRKNIAKRILDNKETIYEEFVRKGILAAFPDGVGIESLAKLFALSTRFSKAYFDGRVTVDLKRILRLPSTLHSKVGLIAKYIGNNERDVMRFNPFKHAVPKFRRKEVKEEYKRFLEENF
chain 2: MLDPFSEKAKELLKEFGSINDFLNSIPRIVDVEEVIERVKIASDRKLLEGFVDIEDIKDLAQFYALLGALSYSPYGLELELVKKANILLYSERIRREKEIRPEEISLRINKAIEFPIDDLKKIERVFGKLPEYTIHLAEFLDLIPGERLSEYYIYNGNVYLRKEDLIKVWMKAFERNIEKSVNMLYEIRDELPGFFREVLGGIKEVAEQEFGKSGEVKAGTLRPDLFPPCVKNALKGVPQGLRNYAITVLLTSFLSYARICPNPPRRNVRVKDCIDDIRIITDEILPLIIEAANRCSPPLFEDQPNEIKNIWYHLGFGYTANPKLEDSGNSTWYFPPNCDKIRANAPQLCTPDKHCKYVRNPLTYYLRRLYLEGRKNASKGGNERGEKRVLQQ
notes: PriS, catalytic small subunit of the DNA primase, Pyrococcus abyssi; PriL, large subunit of the DNA primase, Pyrococcus abyssi, with its C-terminal 4Fe-4S domain; Analyte in BLI on His-Rpa2^WH and on RPA-ssDNA filaments; also called full-length PriSL; source: E. coli BL21 Star (DE3), polycistronic PriS-PriL, purified (heat 60 °C, HisTrap, heparin, SEC)

Key:
Settings in all cases: both partners purified
[1] = target: B2; experiment: BLI; histidine-tagged Rpa2^WH captured on Ni-NTA sensors; PriSL (7.81-500 nM) or PolD (15.62-1000 nM) in solution; steady-state analysis; 25 °C, buffer E with 0.2 mg/ml BSA
[2] = target: T2, Replicative DNA polymerase PolD (DP1-DP2 heterodimer) from P. abyssi, in solution (Pyrococcus abyssi); experiment: as above
T2 construct: DP1, proofreading small subunit of DNA polymerase D, Pyrococcus abyssi; DP2, polymerization large subunit of DNA polymerase D, Pyrococcus abyssi; also called unlabeled PolD; source: E. coli BL21 Star (DE3), purified (heat 60 °C, HisTrap, heparin, SEC)

[3] = target: T1, RPA^ΔWH (Rpa1/Rpa2(1-179)/Rpa3), RPA …; experiment: BLI; RPA or RPA^ΔWH nucleoprotein filaments on a 3'-TEG-biotin 50-nt ssDNA held on streptavidin sensors; PriSL (1.56-100 nM) or PolD (15.62-1000 nM) in solution; steady-state analysis; 25 °C, buffer E with 0.2 mg/ml BSA

| Binder | Kd [1] [nM] | Kd [2] [nM] | fold weaker interaction than with wild-type RPA filaments (at 12.5 nM PriSL) [3] [fold] |
| --- | --- | --- | --- |
| B1 | 25 ± 9 | 98 ± 49 |  |
| B2 |  |  | 7 |
